Data taken from paper PMC3156243, “Properties and Crystal Structure of Methylenetetrahydrofolate Reductase from Thermus thermophilus HB8” (PLoS ONE, 2011).

Target: the molecule itself
Test: SEC-MALS; as-purified MTHFR; HPLC on TSK-gel G3000SWxl with multi-angle light scattering and refractive index detectors; 50 mM Tris-HCl pH 6.8, 0.2 M NaCl; 0.5 ml/min; 0.1 mg protein/run

B1: Methylenetetrahydrofolate reductase (MTHFR) from Thermus thermophilus HB8, C-terminally hexa-His-tagged wildtype (enzyme, UniProt Q5SLG6 1-296, looked up)
chain: MKIRDLLKARRGPLFSFEFFPPKDPEGEEALFRTLEELKAFRPAFVSITYGAMGSTRERSVAWAQRIQSLGLNPLAHLTVAGQSRKEVAEVLHRFVESGVENLLALRGDPPRGERVFRPHPEGFRYAAELVALIRERYGDRVSVGGAAYPEGHPESESLEADLRHFKAKVEAGLDFAITQLFFNNAHYFGFLERARRAGIGIPILPGIMPVTSYRQLRRFTEVCGASIPGPLLAKLERHQDDPKAVLEIGVEHAVRQVAELLEAGVEGVHFYTLNKSPATRMVLERLGLRPASGQP
notes: Methylenetetrahydrofolate reductase (MetF homologue) of Thermus thermophilus HB8, clone TTHA0327, wildtype gene amplified by PCR into pET23; the original stop codon was mutated to Ala before the C-terminal hexa-His tag; One polypeptide in two cofactor states: as purified about one FAD per dimer (apo- plus holo-subunit), after FAD treatment one FAD per subunit; The stop codon is replaced by Ala, …
  stoichiometry N: 2
